# Assay results taken from PMC9038204, “SNX27–Retromer directly binds ESCPE-1 to transfer cargo proteins during endosomal recycling” (PLoS Biology, 2022).
# Columns and labels:
# [1] = target: FERM domain of human SNX27 (hSNX27FERM); test: ITC, hSNX27FERM titrated into mSNX1 proteins; format: binding; conditions: 25°C
# Protocol: Human SNX1 and SNX2 peptide sequences were synthesized by Genscript (USA). To obtain the peptide stock solutions at neutral pH, 100 mM Tris-HCl, pH 10.6 was used to dissolve the peptide to a final concentration of 8 mM. The peptides were SNX1_35-51 […], SNX135-51(D45K) […], SNX1_75-92 […], SNX2_16-33 […], SNX2_16-33(DLF/SSS) […], and SNX2_62-82 […].
# All microcalorimetry experiments were conducted at 25°C using a PEAQ ITC (Malvern, UK) in 50 mM HEPES (pH 7.5), 200 mM NaCl, 5% glycerol, and 1 mM β-ME (ITC buffer). All proteins were purified by SEC using the same buffer prior to ITC experiments to avoid buffer mismatches. To measure binding of SNX27 to SNX1 proteins, 800 μM of hSNX27FERM was titrated into 20 μM of GST-mSNX1_1-139 or His-SNX1FL. For the binding of SNX1 and SNX2 peptides to SNX27, peptides were diluted 10-fold to 800 μM in ITC buffer peptides and titrated into 20 μM SNX27FL proteins containing the same 1:10 ratio of peptide buffer (100 mM Tris-HCl, pH 10.6). The competitive ITC experiments were carried out by titrating 800 μM SNX1_75-92 peptides into 20 μM proteins with 2-fold molar excess SNX2_16-33 peptide preincubated with SNX27 on ice for an hour. For ITC experiment using SNX1_75-92 against hSNX27 wild-type and single-site mutants, 600 μM SNX1_75-92 peptide was titrated into 20 μM hSNX27 proteins.
# The ITC experiments were conducted with 1 injection of 0.4 μL followed by a series of 12 injections of 3.2 μL each with 180-second intervals and a stirring speed of 850 rpm. The heat exchange of interactions was obtained through integrating the observed peaks and background correction by subtracting the heats of dilution. Data were analyzed with Malvern software package by fitting and normalized data to a single-site binding model, yielding the thermodynamic parameters Kd, ΔH, ΔG, and −TΔS for all binding experiments. The stoichiometry was refined initially, and if the value was close to 1, then N was set to exactly 1.0 for calculation. All experiments were performed at least twice to guarantee reproducibility of the data.
# SNX27 = test: GFP trap co-immunoprecipitation of GFP-SNX1/SNX2 constructs from HEK-293T, quantitative western blot: SNX27; format: binding; conditions: Fig 3F, S2B Fig; double aDLF mutants in HEK293T, GFP trap
# Protocol: HeLa and HEK-293T cell lines were sourced from ATCC. Authentication was from the ATCC. Cells were grown in DMEM (Sigma-Aldrich) supplemented with 10% (v/v) FCS (Sigma-Aldrich) and penicillin/streptomycin (Gibco, USA) and grown under standard conditions. FuGENE HD (Promega, USA) was used for transient transfection of DNA according to the manufacturer’s instructions. Cycloheximide was used to prevent up-regulation of protein synthesis. In this case, cycloheximide (C7698; Sigma-Aldrich) at 10 μg/ml was added to the cells 48 hours after FuGENE transfection for the indicated time points. For the generation of CRISPR-Cas9 SNX27 knockout HeLa cells, HeLa cells were transfected with pX330 plasmid coding for the gRNA against the gene of interest together with a puromycin resistance–expressing plasmid. Cells were then subjected to puromycin selection for 24 hours. The pooled population of cells was subjected to lysis and western blotting to confirm the knockout. The VPS35 knockout clonal cell line used in this study was characterized previously. […]
# For western blotting, cells were lysed in PBS with 1% (v/v) Triton X-100 and protease inhibitor cocktail. The protein concentration was determined with a BCA assay kit (Thermo Fisher Scientific, USA), and equal amounts were resolved on NuPAGE 4% to 12% precast gels (Invitrogen, USA). […]
# [2] = pH 7.5, 800 μM hSNX27FERM into 20 μM mSNX1 protein
"Kd ([1]; 50 mM HEPES pH 7.5, 200 mM NaCl, 5% glycerol, 1 mM β-ME, 800 μM hSNX27FERM titrated into 20 μM mSNX1 protein, single-site fit, mean of at least 2 experiments) [µM]",Molecule,"-TΔS [1, 2] [kcal/mol]","ΔG [1, 2] [kcal/mol]","ΔH [1, 2] [kcal/mol]","SNX27 binding, in words (SNX27)"
41,"mSNX1FL: recombinant full-length mouse SNX1 with an amino-terminal His-tag (protein, left off: His-tag, N-terminal, kept) MASGGGGCSASERLPPPFPGMDPESEGAAGASEPEAGDSDTEGEDIFTGAAAATKPQSPKKTTSLFPIKNGSKENGIHEDQDQEPQDLFADATVELSLDSTQNNQKTMPGKTLTSHSPQEATNSPKPQPSYEELEEEEQEDQFDLTVGITDPEKIGDGMNAYVAYKVTTQTSLPMFRSRQFAVKRRFSDFLGLYEKLSEKHSQNGFIVPPPPEKSLIGMTKVKVGKEDSSSAEFLEKRRAALERYLQRIVNHPTMLQDPDVREFLEKEELPRAVGTQALSGAGLLKMFNKATDAVSKMTIKMNESDIWFEEKLQEVECEEQRLRKLHAVVETLVNHRKELALNTALFAKSLAMLGSSEDNTALSRALSQLAEVEEKIEQLHQEQANNDSFLLAELLSDYIRLLAIVRAAFDQRMKTWQRWQDAQATLQKKRESEARLLWANKPDKLQQAKDEITEWESRVTQYERDFERISTVVRKEVTRFEKEKSKDFKNHVMKYLETLLHSQQQLAKYWEAFLPEAKAIS",0.24 ± 3.10,-5.99 ± 0.02,-6.23 ± 3.11,
,"GFP-SNX2(D26K,D72K): mutant targeting both aDLF motifs in SNX2 (protein, UniProt O60749 1-519, looked up, variant D26K D72K, GFP tag) Sorting nexin-2: MAAEREPPPLGDGKPTDFEDLEDGEKLFTSTVSTLESSPSSPEPASLPAEDISANSNGPKPTEVVLDDDREKLFAEATEEVSLDSPEREPILSSEPSPAVTPVTPTTLIAPRIESKSMSAPVIFDRSREEIEEEANGDIFDIEIGVSDPEKVGDGMNAYMAYRVTTKTSLSMFSKSEFSVKRRFSDFLGLHSKLASKYLHVGYIVPPAPEKSIVGMTKVKVGKEDSSSTEFVEKRRAALERYLQRTVKHPTLLQDPDLRQFLESSELPRAVNTQALSGAGILRMVNKAADAVNKMTIKMNESDAWFEEKQQQFENLDQQLRKLHVSVEALVCHRKELSANTAAFAKSAAMLGNSEDHTALSRALSQLAEVEEKIDQLHQEQAFADFYMFSELLSDYIRLIAAVKGVFDHRMKCWQKWEDAQITLLKKREAEAKMMVANKPDKIQQAKNEIREWEAKVQQGERDFEQISKTIRKEVGRFEKERVKDFKTVIIKYLESLVQTQQQLIKYWEAFLPEAKAIA",,,,near undetectable levels
,"mSNX1_1-139: recombinant truncated mSNX1 containing residues 1 to 139, GST fusion protein (protein, left off: GST, N-terminal, kept, recombinant truncated mSNX1 containing residues 1 to 139, GST fusion protein) MASGGGGCSASERLPPPFPGMDPESEGAAGASEPEAGDSDTEGEDIFTGAAAATKPQSPKKTTSLFPIKNGSKENGIHEDQDQEPQDLFADATVELSLDSTQNNQKTMPGKTLTSHSPQEATNSPKPQPSYEELEEEEQ",,-6.02 ± 0.01,-6.93 ± 0.01,
